Legend:
[1] = molecular target: GABABR1a on mouse hippocampal neurons (cultures and slices) (mouse) (UniProt Q9WV18); assay: cell-based or functional assay
[2] = molecular target: GABAB Receptor from rat whole-brain synaptosome extracts (rat); assay: affinity pull-down with sAPPα-Fc bait on rat synaptosome extracts, LCLC-MS/MS, three repeats
Chain of GABAB Receptor from rat whole-brain synaptosome extracts (rat) (Q9Z0U4 20-960, chain 1 of 2): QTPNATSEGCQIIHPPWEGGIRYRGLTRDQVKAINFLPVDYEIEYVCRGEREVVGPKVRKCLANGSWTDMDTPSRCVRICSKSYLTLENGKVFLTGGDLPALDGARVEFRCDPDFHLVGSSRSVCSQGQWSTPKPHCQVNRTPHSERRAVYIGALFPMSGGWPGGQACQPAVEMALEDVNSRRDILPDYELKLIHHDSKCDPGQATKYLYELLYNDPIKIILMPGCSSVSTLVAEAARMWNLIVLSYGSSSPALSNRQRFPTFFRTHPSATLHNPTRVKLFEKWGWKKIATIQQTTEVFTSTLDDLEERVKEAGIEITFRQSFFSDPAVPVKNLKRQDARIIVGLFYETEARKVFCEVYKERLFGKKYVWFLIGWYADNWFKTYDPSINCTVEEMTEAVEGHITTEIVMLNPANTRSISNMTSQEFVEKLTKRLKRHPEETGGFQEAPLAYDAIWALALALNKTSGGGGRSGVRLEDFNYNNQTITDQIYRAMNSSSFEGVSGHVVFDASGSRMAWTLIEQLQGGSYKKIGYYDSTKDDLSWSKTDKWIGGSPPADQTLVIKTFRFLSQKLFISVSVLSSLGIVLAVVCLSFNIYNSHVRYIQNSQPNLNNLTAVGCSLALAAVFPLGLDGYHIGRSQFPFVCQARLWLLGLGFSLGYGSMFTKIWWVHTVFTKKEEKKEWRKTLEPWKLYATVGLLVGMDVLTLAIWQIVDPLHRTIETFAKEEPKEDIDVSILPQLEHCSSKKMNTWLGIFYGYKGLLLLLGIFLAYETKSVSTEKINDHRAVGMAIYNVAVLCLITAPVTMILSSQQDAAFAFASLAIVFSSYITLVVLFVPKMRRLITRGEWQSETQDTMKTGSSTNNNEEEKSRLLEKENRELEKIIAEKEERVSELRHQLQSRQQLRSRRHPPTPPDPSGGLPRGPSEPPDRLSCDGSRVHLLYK
Chain of GABAB Receptor from rat whole-brain synaptosome extracts (rat) (O88871 41-940, chain 2 of 2, further chain): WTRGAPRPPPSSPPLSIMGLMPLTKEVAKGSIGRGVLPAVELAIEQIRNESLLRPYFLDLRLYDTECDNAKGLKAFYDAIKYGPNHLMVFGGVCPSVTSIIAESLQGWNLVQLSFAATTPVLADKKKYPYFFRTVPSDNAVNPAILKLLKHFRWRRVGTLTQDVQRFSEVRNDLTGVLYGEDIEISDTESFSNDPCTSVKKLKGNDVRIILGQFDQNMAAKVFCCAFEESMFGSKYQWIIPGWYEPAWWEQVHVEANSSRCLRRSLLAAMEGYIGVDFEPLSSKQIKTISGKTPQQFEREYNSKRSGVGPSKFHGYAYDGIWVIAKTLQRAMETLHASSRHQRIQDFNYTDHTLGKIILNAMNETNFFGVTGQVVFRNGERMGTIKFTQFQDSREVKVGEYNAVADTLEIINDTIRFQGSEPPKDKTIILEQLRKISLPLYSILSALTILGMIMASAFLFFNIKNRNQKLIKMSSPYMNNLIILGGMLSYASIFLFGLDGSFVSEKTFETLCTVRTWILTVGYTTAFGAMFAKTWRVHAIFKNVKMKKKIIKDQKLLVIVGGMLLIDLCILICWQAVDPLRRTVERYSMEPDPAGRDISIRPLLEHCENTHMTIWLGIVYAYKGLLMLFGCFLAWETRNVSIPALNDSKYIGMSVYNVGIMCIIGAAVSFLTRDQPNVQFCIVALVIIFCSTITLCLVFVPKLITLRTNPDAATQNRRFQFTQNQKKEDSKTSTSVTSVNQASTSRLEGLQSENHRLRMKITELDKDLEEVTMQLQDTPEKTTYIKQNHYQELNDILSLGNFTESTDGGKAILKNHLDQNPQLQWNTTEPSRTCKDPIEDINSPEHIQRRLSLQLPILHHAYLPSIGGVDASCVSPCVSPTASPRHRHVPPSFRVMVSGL

Chain of GABABR1a on mouse hippocampal neurons (cultures and slices) (mouse) (Q9WV18 20-960): as the sequence (Q9Z0U4 20-960, chain 1 of 2) above, with A5V, E108D, V124I, V702I, T850A, L902I counted along it

| Substance | reduction in mIPSC frequency, 250 nM [1] [%] | summed peptide count [2] | summed spectra count [2] |
| --- | --- | --- | --- |
| sAPLP1 (without Fc) (from UniProt Q03157 38-583) (ligand) | 17 |  |  |
| sAPPα-Fc (soluble amyloid precursor protein α fused to human Fc) (from UniProt P12023 18-612) (Fc fusion) |  | 35 | 22 |

Reference: patent US20190225662A1
